Assay results reported in the nanobody polyreactivity screen of Harvey et al. (2022).

Assay: yeast display, Sf9 membrane polyspecificity reagent, FACS + sequencing; frameworks hold sequencing errors
Method in brief: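 In a synthetic yeast display library (Saccharomyces cerevisiae BJ5465), nanobody expression was induced with galactose for 36–48 hours. FACS gates were set low and high (top ~1%) using anti-HA fluorescence for expression and streptavidin fluorescence for binding of the Sf9 membrane reagent. Each polyreactivity label is drawn from the gate of origin.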

Row | Sequence | polyreactivity (PSR sort gate)
1 | QVHLVESGGGLVQAGGSLRLSCAASGIIFDEYAMGWYSQAPGKERELVAAINWSGGITYYADSVKGRFTISRDNAKNTVYLQMNSLKPEDTAVYYCNKDPLVFDYWGQGTQVTVSS | low polyreactivity
2 | QVHLVESGGGLVQAGGSLRLSCAASGIISGGNAMGWYRQAPGKDRELVASINSGGSTNYADSVKGRFTISRDNALNSLYLKMNSLKPDDTAVYYGAGDYIDSTAYDYWGQGTKVTVSS | low polyreactivity
3 | QVHLVESGGGLVQAGGSLRLSCAASGITFRRNTMGWYRQAPGKERELVATISWRGGNTFYADSVKRRFTISRDNAKNTVYLQMHSLKPEDTAVYYCAVAFKGPSGYQYDYWGQGTQVTVSS | high polyreactivity
4 | QVHLVESGGGLVQAGGSLRLSCAASGITFYLYAMGRYRQAPAKERELVAAINASGGSTYYADSVKGRFTISRDNAKNTVYLQMNSLKPEDSGVYYCAASTKKTRGFNYWGQGSQVTVSS | high polyreactivity
5 | QVHLVESGGGLVQAGGSLRLSCAASGLIFLYYAMGWYRQAPGKERELVAAISSGGSTYYADSVKGRFTISRDNAKNTVFLQMNSLTPEDTAVYYCAAADSYSSLEYWGQGTQVTVSS | high polyreactivity
6 | QVHLVESGGGLVQAGGSLRLSCAASGLIFYDNMGWYRQAPGKERELVAAISSSGGSTSYADSVKGRFTISRDNAKNTVYLQMYSLKPEDTAVYYCAADSYPAYLGFVGYDYWGQGTQVTVSS | low polyreactivity
7 | QVHLVESGGGLVQAGGSLRLSCAASGLIFYRYAMGWYRQAPGKERELVATISRGGRTYYADSVKGRFTNSRDNAKNTVYLQMNSLKPEDTAVYYCNADRQWYSIGSWEYDYWGQGTQVTVSS | high polyreactivity
8 | QVHLVESGGGLVQAGGSLRLSCAASGLIIRYYAMGWYRQAPWKERELVAAITSRGGSTYYADSVKGRFKISRDNAKNTVYLQMNSLKPEDTAVYSCAAGLIFVSRFYVPYDYWGQGTQVTVSS | high polyreactivity
9 | QVHLVESGGGLVQAGGSLRLSCAASGLILGHYTMGWYRQAPGKERELVAAITSDGGSTYYADSVMGRFTISRDNAKNTVYLQMNSLKPEDTAVFYCAADLPAYTGYESDYWGQGTQVTGSS | low polyreactivity
10 | QVHLVESGGGLVQAGGSLRLSCAASGLPFSQNAMGWNRQAPGKERELVAAINTSDDSTYYADSVKGRFTISRDNAKNTVYLQMNSLKPEDTAVYDCAVDGYWYGGIFYYWGQGTQVTVSS | low polyreactivity
11 | QVHLVESGGGLVQAGGSLRLSCAASGLTLNSYVMGWYRQAPGKERELVARITSGGRTNYADSVKGRFTISRDNAKNTVYLQMNSVKPEDTAVYYCAVRSLSYARGGRSDFKVGYWGQGTQVTVSS | low polyreactivity
12 | QVHLVESGGGLVQAGGSLRLSCAASGNIIDSNAMGWYRHAPGKERELVAAITWSGGSTYYADSVKGRFTISRDNAKTTVYLPMNSLKPADTAVYYCAAYAQKRYYWGQGTQVTVSS | high polyreactivity
13 | QVHLVESGGGLVQAGGSLRLSCAASGNIITSYAMGWYRQAPGKERELVAAISSGGTTHYADSVKGRFTISRDNAKNTVYLQMNSLKPEDTAVYYCAARQVSYYKANDSWVRSEYDYWGQGTQVSVSS | low polyreactivity
14 | QVHLVESGGGLVQAGGSLRLSCAASGRIFADYAMGWYRHAPGKERELVAAISSTSSTNYADSVKGRFTISRDNAKNTVYLQMKSLKPEDTAVYYCAATAGSLTADYVSYTYNYWGQGTQVTVSS | low polyreactivity
15 | QVHLVESGGGLVQAGGSLRLSCAASGRIFAKNAMGWYRQAPGKERELVAAINHSGGSTYYADSVKGRFTISRDYAKNTVYLQMNSLNPEDTAVYYCDARGLTTRSPFYYWGQGTQVTVSS | high polyreactivity
16 | QVHLVESGGGLVQAGGSLRLSCAASGRIFDGYDMGWYRQAPGKERELVAAITSVGSTNYADSVKGRFTISRDNAKNTVYLQMNSLKPEDTAVYYCAAVLYVFDDEYGYLEYFSQYDYWGQGSQVTVSS | low polyreactivity
17 | QVHLVESGGGLVQAGGSLRLSCAASGRIFFPNAMGWYRQAPGKERELVAGISIGGSTKYADSVKGRFTISRDNAKNTVYLQMNSLKPEDTAVYYCAAGRGRHTYNYWGQGTQVTVSS | low polyreactivity
18 | QVHLVESGGGLVQAGGSLRLSCAASGRIFFTNAMGWYRQAPGKERELVATISSSDGSTYYADSVKGRFTISRDNAKYTVYLQMNSLKPEDTAVYYCAALYSFRGSRQYTYKYYYWGLGTQVTVSS | high polyreactivity
19 | QVHLVESGGGLVQAGGSLRLSCAASGRIFGRYAMGWYRQAPGKERELVARITTSGGSTSYADSVKGRFTISRDNAKNTVYLQMNSLKPEDTAVYYCAADRARYYSEYDYWGQGTQVTVSS | low polyreactivity
20 | QVHLVESGGGLVQAGGSLRLSCAASGRIFHYYMVWYTQAPGKERELVAVISSGDGTYYADSVKRRFTISRDNAKNTVYLQMNSLKPEDTAVYYCAADAPREYVDHYKYDDDYWGQGTQETVSS | low polyreactivity
21 | QVHLVESGGGLVQAGGSLRLSCAASGRIFIYNAMGWYRPPPGKERELVAAINRSGVSTHYADSVKGRFTISRDNAKNTVFLQMNSLKPEDTAVYYCARTVYGARSYDYWGQGTQVTVSS | low polyreactivity
22 | QVHLVESGGGLVQAGGSLRLSCAASGRIFRTYAMGWYRQAPGTERELVASITTSSDSPYYADSVKGRFTISRDNAKNTVYLQMNSLKPEDTAVYYCAADGDHPWWSQYDYWGQGTQVTVSS | low polyreactivity

Row | Sequence | polyreactivity (PSR sort gate)
23 | QVHLVESGGGLVQAGGSLRLSCAASGRIFVGYAMGWSRQAPGKERELVAASTSGGITNYADSVKGRFTISRDNAKNTVYIQMTSLKPEATAVYYCNVKRRVSGYYGYKDYYWGQGTQVTVSS | high polyreactivity
24 | QVHLVESGGGLVQAGGSLRLSCAASGRIFYTNAMGWYRQAPGKERELVAVISWGGDTTYYADSVKGRFTISRDNAKNTVSLQMNSLKPEDTEVYYCAARSKYTHSRQSDYWGQGTQVTVSS | low polyreactivity
25 | QVHLVESGGGLVQAGGSLRLSCAASGRNFLYYAMGWYRQAPGKERELVAASTSGDSTYYADSVKGRFTISRDNAKNTVYLQRNSLKPEDTAVYYCNAYQWGGRYWLVTYDYWGQGTLVTVSS | low polyreactivity
26 | QVHLVESGGGLVQAGGSLRLSCAASGRTFGPYTMGWYRQAPGTEREVVAAINSSGSRTYYADSVKGRFTISRDNAKNTVYLQMNSLKPEDTAVYYCADEAKWYYSWSYPYEGDYWGQGTQVTVSS | low polyreactivity
27 | QVHLVESGGGLVQAGGSLRLSCAASGRTFGYYAMGWYRQAPAKERELVAAITSDGRTNYADSVKGRFTISRDNAKNTVYLQMNSLKPEDTAVYYCAAQILGTFYEYDYWGQGTQVTVSS | low polyreactivity
28 | QVHLVESGGGLVQAGGSLRLSCAASGRTFIIYAMGWYRPAPGKERELVADISSGGSTYYADSVKGRFTISRDNAKNTVYLQMNIVKPEDTAVYYCAAQSWYFPIGYDYWGQGTQVTVSS | low polyreactivity
29 | QVHLVESGGGLVQAGGSLRLSCAASGRTFILNAMGWYRQAPGKERELVAAISWSGGSTYYADSVKGRFTISRDNAKNTVYLQMNSLKPEDTAVYYCAKDSPGDGIGYGYWGQGTQVTVSS | low polyreactivity
30 | QVHLVESGGGLVQAGGSLRLSCAASGRTFKHYAMGWYRQEPGKERELVAAITSGGSTYYADSVKGLFTISRDNAKNPVYLQMNSLKPEDTAVYYCNTESFFDTYRRYDSWGQGTQVTVSS | low polyreactivity
31 | QVHLVESGGGLVQAGGSLRLSCAASGRTFPGYAMGWYRQAPGKERELVATITFSDGSTYYADSVKGRFTISLDNAKNTVYLQMNSLKPEDTAVYYCNARRSYFLRYGVNYWGQGTQVTVSS | low polyreactivity
32 | QVHLVESGGGLVQAGGSLRLSCAASGRTFPYNAMGWYRQAPGKERELVAAISWRGGSTYYADSVKGRFTISRDNAKNTVYLQMNSLKPEDTAVYYCNALYPVSYDHRGDYWGQGTQVTVSS | high polyreactivity
33 | QVHLVESGGGLVQAGGSLRLSCAASGRTFQWYAMGWYRQAPGKERELVAAIRYSAGSTYYADSVKGRFTISRDNAKNTVYLQMNSLKPEDTAVYYCAAEPYPYGPYYFLWLRYDYWGQGTHVTVSS | low polyreactivity
34 | QVHLVESGGGLVQAGGSLRLSCAASGRTFRRYAMGWYRQAPGKERELVAGISRSGVSTYYADSVKGRFTISRDNAKNTVYLQMNSLKPEDTAVYYCATRYVPTLRSSGDYCGQGTQVTVSS | high polyreactivity
35 | QVHLVESGGGLVQAGGSLRLSCAASGRTFRVNAMGWNRKAPGKERELLAAISSRGGTTYYADSVKGRCTISSDYAKNTLYLQMYSLKAEDTAVYYCAAASDRDFPFDYWGQGTQVSVSS | high polyreactivity
36 | QVHLVESGGGLVQAGGSLRLSCAASGRTFRYNAMGWYRQAPGKERELVATISSSGGSTSYADSVKGRFTISRDNAKNTVYLQMNSLKPEDTAVYYCNKRRLVAPGNGMDSWGQGTQVTVSS | low polyreactivity
37 | QVHLVESGGGLVQAGGSLRLSCAASGRTFSKYAMGWYRPAPGKERELVAAITSRGSSTYYADSVKGRFTISRDYAKNTVYLLMNSLKPEDTAVYYCNAGGYYIRTGWYRSGSDYWGQGTQVTVSS | high polyreactivity
38 | QVHLVESGGGLVQAGGSLRLSCAASGRTFVINAMGWYRQAPGKERELVAAITWGGGSTYYADSVKGRFTISRDNAKNTVYLQMNSLKPEDTAVYYCATSYSVQYGGSGYYWGQGTQVTVSS | low polyreactivity
39 | QVHLVESGGGLVQAGGSLRLSCAASGRTFVYNAMGWYRQAPGKERELVAAISQSGGSTYYADSVKGRFTISRDNAKNTVYLQMNSLKPEDTAVYYCAARYKTGSYVRYNYWGQGSQVTVSS | high polyreactivity
40 | QVHLVESGGGLVQAGGSLRLSCAASGRTFYDYTMGLDRQAPGKERELVAAISQRGGSTYYADSVKGRFTISRDNAKNTVYLQMNSLKPEDTAVYYCAARTSYSGNKYYYWGQGTQVTVSS | high polyreactivity
41 | QVHLVESGGGLVQAGGSLRLSCAASGRTFYYYAMGWYRQAPGKERELVAAISGSGTNTYYADSVKGRFTISRDNAKNTVYLQMNRLKPEDTAVYYCAAEYFGFYTDGGVFDLYYWGQGTQVTVSS | low polyreactivity
42 | QVHLVESGGGLVQAGGSLRLSCAASGSIFAAYTMGWYRRAPGKERELVAAISVSTVSTYYADSVKGRFTISRDNAKNTVYLQMNSLNPEDTAVYYCNADATDSYPEKDEHDSWGQGTQVTVSS | low polyreactivity
43 | QVHLVESGGGLVQAGGSLRLSCAASGSIFALYAMGWYRQAPGKERELVARISYSGGRTYYADSVKGRFTISRDNAKNTVYLQMNSLKPEDTAVYYCATRSFKWSFVGYDYWGQGTQVTVSS | high polyreactivity
